Test results from the supplement of paper PMC11908140.

B1: library; numbered along this chain (parent)
chain: MRKPRAAVGSGHRKQAASQEGRQKHAKNNSQAKPSACDGLARQPEEVVLQASVSSYHLFRDVAEVTAFRGSLLSWYDQEKRDLPWRRRAEDEMDLDRRAYAVWVSEVMLQQTQVATVINYYTGWMQKWPTLQDLASASLEEVNQLWAGLGYYSRGRRLQEGARKVVEELGGHMPRTAETLQQLLPGVGRYTAGAIASIAFGQATGVVDGNVARVLCRVRAIGADPSSTLVSQQLWGLAQQLVDPARPGDFNQAAMELGATVCTPQRPLCSQCPVESLCRARQRVEQEQLLASGSLSGSPDVEECAPNTGQCHLCLPPSEPWDQTLGVVNFPRKASRKPPREESSATCVLEQPGALGAQILLVQRPNSGLLAGLWEFPSVTWEPSEQLQRKALLQELQRWAGPLPATHLRHLGEVVHTFSHIKLTYQVYGLALEGQTPVTTVPPGARWLTQEEFHTAAVSTAMKKVFRVYQGQQPGTCMGSKRSQVSSPCSRKKPRMGQQVLDNFFRSHISTDAHSLNSAAQ

Variants of: B1
Experiment: 8OG:A repair function score (normalized; synonymous = 0, nonsense = -1) (normalized log-likelihood score); higher = more repair activity (WT-like)
Conditions: with 8OG:A DNA repair reporter (GFP) in HEK-293 MUTYH KO cells
Procedure: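 Saturation mutagenesis (NNN codon scan) of the MUTYH cDNA (521-aa nuclear isoform NM_001048174.1 / NP_001041639), stably expressed under doxycycline induction in HEK-293 MUTYH knockout cells. Cells were co-transfected with an 8OG:A-bearing GFP repair reporter plus mCherry and sorted 72 h later into GFP+ and GFP− bins, three replicates per tile. The Rosace log2 enrichment (GFP+ vs GFP−) was converted per tile to a normalized function score with synonymous variants centered at 0 and nonsense variants (codons 1-471) at -1; low-abundance variants were removed.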

8OG:A repair function score: each site, then its substitutions
K127: A -0.303; C 0.0938; S -0.0418; D -1.32; W -0.529; M -0.286; Q -0.208; F -0.207; T -0.072; I -0.204; R 0.014; H 0.135; L -0.0156; Y -0.398; N -0.0772; E -0.0486; P -0.884; G -0.408; V -0.306
L131: P -0.153; R -0.798; G -0.424; Q -0.814; Y -0.228; A -0.104; I -0.158; M 0.0751; V -0.0573; W -1.21; H -0.283; D -1.1; K -0.394; F 0.00215; T -0.0104; N -0.249; S -0.315; C -0.139; E -0.608
D133: A -0.000201; E -0.0313; H -0.0208; I -0.308; G 0.0336; F -0.0791; C -0.201
P129: Q -0.0447; K -0.414; F -0.742; M -0.298; W -0.109; Y -0.513; L -0.577; S -0.231; I -0.53; H -0.193; V -0.608; C -0.403; G -0.263; N -0.266; R -0.477; D -0.0868; A -0.267; T -0.491; E -0.084
M125: H -0.401; W -0.408; T -0.339; F -0.273; N -0.838; A -0.557; C -0.306; D -0.755; S -0.734; E -0.577; I -0.0973; G -0.932; P -1.2; Y -0.538; R -0.877; L -0.161; K -0.523; Q -0.33; V -0.308
Q126: C -0.239; V -0.0961; E 0.0677; L 0.0989; I -0.00505; A 0.00568; K 0.0876; T 0.049; D 0.00176; W -0.256; H -0.0777; N 0.0504; Y -0.055; M 0.0168; F 0.0114; P -0.376; R 0.0261; G -0.0912; S 0.0362
T130: I -0.27; A -0.214; L -0.336; P -0.9; H -0.115; V -0.178; Y -0.392; K -0.0846; E -0.171; F -0.197; C -0.578; Q -0.123; R -0.049; G -0.0108; M -0.278; W -0.522; S 0.107; N -0.00511; D 0.137
W124: P -0.593; R -1.05; N -1.01; T -0.869; Y -0.973; Q -0.557; V -0.516; S -0.825
W128: T -0.721; F -0.156; P -1.23; A -0.875; D -1.27; K -0.455; V -0.224; L -0.0988; N -0.681; I -0.397; E -0.929; S -0.935; R -0.696; M -0.374; Q -0.844; G -0.819; C -0.476; Y -0.0875; H -0.948
Q132: K -0.364; H -0.0442; M -0.0607; W -0.228; C -0.154; D 0.0351; S -0.109; T 0.0372; P 0.0126; G -0.076; I -0.0124; Y -0.125; L -0.194; E -0.0366; N -0.0864; F -0.327; V -0.0799; R 0.00437; A 0.059
